Key:
[1] = biological target: ZIKV-H/PF/2013 sE protein (aa 1-404) (Zika virus (strain H/PF/2013)); assay: crystal structure
[2] = biological target: ZIKV-H/PF/2013 sE protein (aa 1-404) (Zika virus (strain H/PF/2013)); assay: SEC-MALS; Superdex 200 10/300 GL; Tris 50 mM pH 8.0, NaCl 500 mM; about 150 ug protein; proteins alone and in complex
[3] = biological target: K^L66A C10 mAb mutant (IgG1) (human); assay: BLI
[4] = biological target: DENV2 strain 16681 envelope (E) protein on virions (Dengue virus 2 (strain 16681)); assay: ELISA
[5] = biological target: DENV3 strain H87 envelope (E) protein on virions (Dengue virus 3 (strain H87)); assay: ELISA
[6] = biological target: DENV4 strain 1-0093 envelope (E) protein on virions (Dengue virus 4 (strain 1-0093)); assay: ELISA
[7] = biological target: DENV2 A259C (sE)2, disulfide engineered mutant dimer; assay: BLI (steady state binding)
[8] = biological target: DENV3 A257C (sE)2, disulfide engineered mutant dimer; assay: BLI (steady state binding)
[9] = biological target: DENV4 A259C (sE)2, disulfide engineered mutant dimer; assay: BLI (steady state binding)
[10] = biological target: ZIKV-H/PF/2013 sE protein (aa 1-404); assay: BLI (steady state binding)
[11] = biological target: DENV3-paH881 sE protein (aa 1-393) (Dengue virus 3 (strain paH881)); assay: crystal structure
[12] = biological target: DENV3-paH881 sE protein (aa 1-393) (Dengue virus 3 (strain paH881)); assay: crystal structure; unbound sE
[13] = biological target: DENV1 strain Hawaii envelope (E) protein on virions (Dengue virus 1 (strain Hawaii)); assay: ELISA; apparent
[14] = biological target: DENV1-FGA/89 sE protein (aa 1-395) (Dengue virus 1 (strain FGA/89)); assay: crystal structure
[15] = biological target: DENV1-FGA/89 sE protein (aa 1-395) (Dengue virus 1 (strain FGA/89)); assay: crystal structure; unbound sE
[16] = biological target: DENV4_Burma/63632/1976 sE protein (aa 1-395) (Dengue virus 4 (strain Burma/63632/1976)); assay: crystal structure

Substance “ZIKV-H/PF/2013 sE protein (aa 1-404) (domain or fragment)” has a stoichiometry N [1] of 2 and a stoichiometry N [2] of 2.

For “DENV2 A259C (sE)2, disulfide engineered mutant dimer (domain or fragment)”, the drop in affinity against wild-type C10 [3] was greater than 1 log.

In the case of “DENV3 A257C (sE)2, disulfide engineered mutant dimer (domain or fragment)”, the drop in affinity against wild-type C10 [3] is reported as greater than 1 log.

“C10 monovalent antigen binding fragment (Fab)” gave a fold difference in EC50 for virion binding, bivalent versus monovalent [4] of 10 fold, a fold difference in EC50 for virion binding, bivalent versus monovalent [5] of 2 logs and a fold difference in EC50 for virion binding, bivalent versus monovalent [6] of 10 fold.

Substance “C10 intact bivalent IgG1 (human monoclonal antibody EDE1 C10) L:K66A” has a Kd [7] of 259 nM, a Kd [8] of 223 nM and a Kd [9] of 1370 nM. The Kd [10] was 40.3 nM.

With “DENV3-paH881 sE protein (aa 1-393) (domain or fragment)” the stoichiometry N [11] was 2 and the stoichiometry N [12] was 2.

C10 bivalent F(ab')2 showed a Kd [13] of 3.84 nM.

For “DENV4 A259C (sE)2, disulfide engineered mutant dimer (domain or fragment)”, the drop in affinity against wild-type C10 [3] was greater than 1 log.

For “DENV1-FGA/89 sE protein (aa 1-395) (domain or fragment)”, the stoichiometry N [14] was 2 and the stoichiometry N [15] was 2.

Substance “DENV4_Burma/63632/1976 sE protein (aa 1-395) (domain or fragment)” has a stoichiometry N [16] of 2.

— article PMC8724787
